Experimental data as given in US20110008279A1, “Methods and Compositions Relating to Adhesins as Adjuvants” (priority 2005, published 2011).
Where “and” joins values, the source holds several entries; their conditions need not be identical. Equal values may be shown once. Read-outs that look alike come from different tables or passages of the source.

How the values were obtained:
[1] = target: specific NadA binding sites on monocytes (human); assay: NadA-I125 binding to monocytes, Scatchard plot; value counted on the homo-trimer
[2] = target: low affinity binding sites for NadA on immature mo-DCs (human); assay: flow cytometry of Alexa-NadA on mo-DCs, Scatchard analysis
[3] = target: high affinity binding sites for NadA on immature mo-DCs (human); assay: as above
[4] = target: low affinity binding sites for NadA on immature mo-DCs (human); assay: flow cytometry of Alexa-NadA on mo-DCs, Scatchard plot
[5] = target: high affinity binding sites for NadA on immature mo-DCs (human); assay: as above
[6] = target: NadA-specific binding sites on macrophage (human); assay: flow cytometry (MFI), Alexa-NadA displaced by unlabelled NadA on macrophages, 37° C
[7] = target: specific NadA binding sites on monocytes (human)
mo-DCs [8] = assay: Expression of maturation markers on mo-DCs (flow cytometry); format: cell-based, human; conditions: flagellin 10 μg/ml; for CD86 expression: LPS 0.1 μg/ml
Description: Reagents used were tested for low endotoxin contamination using the Limulus amoebocyte assay (Sigma). Dendritic cells were generated from human peripheral blood mononuclear cells (PBMC) as described previously. In brief, PBMC were isolated from buffy coats of healthy donors by Ficoll-Paque Plus density gradient centrifugation (Amersham Pharmacia Biotech AB). Separate monocyte and T-cell fractions were obtained from PBMCs by Percoll density gradient centrifugation (Amersham Pharmacia Biotech AB). […] DC were obtained by 6-d culture adherent monocytes in medium with 20 ng/ml IL-4 (5×10^6 units/mg, Peprotech) and 50 ng/ml GM-CSF (1×10^7 units/mg, Peprotech). Cytokines were added again on day 4 in RPMI-1640 medium supplemented with 10% FBS. […] After 24 h cells were harvested and analysed. Culture supernatants were collected frozen in liquid nitrogen and conserved at −80° C. for cytokine analysis.
After differentiation, DC were routinely stained with phycoerytrin conjugated monoclonal antibodies to human CD14, CD1a, CD83, CD86 (B7.2), CD80 (B7.1), MHC II (HLA-DR), purchased from BD-Pharminghen and Caltag. In parallel, cells were stained with the isotype matched control mAb. Cells were immunostained with the proper dilution of PE-conjugated anti human monoclonal antibodies at 4° C. for 30 min in 100 μl of phosphate-buffered saline pH 7.2 (PBS, GIBCO BRL) containing 1% FBS and 0.1% NaN3 (FACS buffer). After washing, propidium iodide was added to exclude dead cells and cell fluorescence intensities of the gated populations were measured with a EPICS XL-MCL (Coulter) flow cytometer and analyzed with EXPO 32ADC XL 3COLOR or WinMDI 2.8. software. Data were collected on 10000-20000 events.

mo-DCs [9] = assay: Cytokine and chemokine secretion by mo-DCs (Bio-Plex, ELISA); format: cell-based, human; conditions: even after IFN-γ priming; flagellin, LPS 100 μg/ml (so in the source)
mo-DCs [10] = assay: as above; format: cell-based, human; conditions: after IFN-γ priming; flagellin 10 μg/ml, CpG 10 μg/ml, maximal LPS
Description: Reagents used were tested for low endotoxin contamination using the Limulus amoebocyte assay (Sigma). Dendritic cells were generated from human peripheral blood mononuclear cells (PBMC) as described previously. In brief, PBMC were isolated from buffy coats of healthy donors by Ficoll-Paque Plus density gradient centrifugation (Amersham Pharmacia Biotech AB). Separate monocyte and T-cell fractions were obtained from PBMCs by Percoll density gradient centrifugation (Amersham Pharmacia Biotech AB). Residual T and B cells were removed from monocyte fraction by plastic adherence of 3×10^6 cells per well in 6-well plates (Costar) resulting in CD14^+ monocyte populations of >95% purity (determined by flow cytometry). DC were obtained by 6-d culture adherent monocytes in medium with 20 ng/ml IL-4 (5×10^6 units/mg, Peprotech) and 50 ng/ml GM-CSF (1×10^7 units/mg, Peprotech). Cytokines were added again on day 4 in RPMI-1640 medium supplemented with 10% FBS. Following this procedure more than 90% cells belonged to the immature DC phenotype (CD1a^+, HLADRlow, CD14^−, CD83^−, CD86^low, CD80^low). On day 5 cells were treated with nothing or with recombinant human IFN-γ (1000 U/ml) for 18 h before stimulation with NadA (0.0375-5 μM) or LPS (1 μg/ml). After 24 h cells were harvested and analysed. Culture supernatants were collected frozen in liquid nitrogen and conserved at −80° C. for cytokine analysis.
The antibody pairs used, directed against different non-competing epitopes of a given cytokine, were purchased from BioRad. Calibration curves from recombinant cytokine standard were prepared with four-fold dilution steps in RPMI-1640 medium containing 10% FBS. Assays were carried out in 96-well sterile pre-wetted filter plates at room temperature and protected from light. A mixture containing 5000 microspheres per cytokine was incubated together with standard or sample in a final volume of 50 μl for 30 min, under continuous shaking (300 rpm). After three washes by vacuum filtration with Bio-Plex washing buffer a cocktail of biotinylated antibodies diluted in Bio-Plex detection antibody diluent was added (25 μl to each well). After a 30 minutes incubation and washing, Streptavidin-PE diluted in Bio-Plex Assay buffer was added (50 μl per well). At the end of 10 minutes incubation under continuous shaking and after washing the fluorescence intensity of the beads was measured in a final volume of 125 μl of Bio-Plex assay buffer. Data analysis was done with Bio-Plex Manager software using a five-parametric-curve fitting. The detection limits were […].
IL12(p40) was measured by capture enzyme-linked immunosorbent assay (ELISA) with antibody pairs and cytokine standard purchased from Bender MedSystems. The concentrations of IL12(p40) in the cell-free supernatants were determined with ELISA kits according to the manufacturer's instructions. The detection limit of the assays was […].

NadAΔ351-405 (from UniProt P0DV44 24-350)
Kd [1]: 1000 nM
Kd [2]: 4000 nM
Kd [3]: 90 nM
Kd [4]: 3000 nM and 5000 nM
fraction of binding sites [4]: 70 to 80%
Kd [5]: 50 to 100 nM
fraction of binding sites [5]: 30% and 20%
decrease of the signal with unlabelled NadA [6]: -50%
Kd [7]: 3000 nM
decrease of the signal with 5 uM unlabelled NadA [7]: -50%

flagellin [reference compound]
CD86 expression on co-stimulation with R-848 (mo-DCs [8]; R-848 1 μM, after IFN-γ priming, NadA 1.5 μM): not further increased
CD86 expression (mo-DCs [8]; after IFN-γ priming, CpG up to 10 μg/ml): comparable to that induced by NadA 1.5 μM
CD86 expression (mo-DCs [8]; no IFN-γ priming): significant increase
IL-12 secretion with R-848 co-stimulation (mo-DCs [9]): ineffective
IL-12(p70) secretion (mo-DCs [10]): comparable to that induced by both 0.25 μM (9 μg/ml) and 1.5 μM (50 μg/ml) NadA
